“And” between values parts separate entries of the source, which are not always exact repeats. Equal entries are not always repeated. One block for each molecule: values may come before it.
Assays:
[1] = tested on: human lung cancer NCI-H460-Luc2; assay: NCI-H460-Luc2 lung cancer xenograft in Crl:CD1-Foxn1nu 1 mice; type: in vivo; conditions: NCI-H460-Luc2, Crl:CD1-Foxn1nu 1 mice, 20 mg/kg i.v. six times every second day, 30th day
Description: (§1) Antitumor activity of protein preparations was tested in a mouse model of human colon cancer HCT116, human colon cancer Colo205, human colon cancer model SW620, human liver cancer model HepG2, and human lung cancer models NCI-H460 and NCI-H460-Luc2.
(§2) The HCT116 (in mice Crl:CD1-Foxn1^nu 1), Colo205, NCI-H460, NCI-H460-Luc2 cells were maintained in RPMI 1640 medium (Hyclone, Logan, Utah, USA) mixed in the ratio of 1:1 with Opti-MEM (Invitrogen, Cat.22600-134) supplemented with 10% fetal calf serum and 2 mM glutamine. On the day of mice grafting, the cells were detached from the support by washing the cells with trypsin (Invitrogen), then the cells were centrifuged at 1300 rpm, 4° C., 8 min., suspended in HBSS buffer (Hanks medium), counted and diluted to the concentration of 25×10^6 cells/ml.
(§3) Examination of antitumor activity of proteins of the invention was conducted on 7-9 week-old CD-nude (Crl:CD1-Foxn1^nu 1) or 4-6 week-old Crl:SHO-Prkdc^scidHr^hr mice obtained from Charles River Germany. Mice were kept under specific pathogen-free conditions with free access to food and demineralised water (ad libitum). All experiments on animals were carried in accordance with the guidelines: “Interdisciplinary Principles and Guidelines for the Use of Animals in Research. […]

MES-SA/Dx5 = assay: MTT cytotoxicity test, MES-SA/Dx5 (multidrug-resistant human uterine sarcoma); type: cell-based; conditions: for MES-SA/Dx5 mean (IC50): Table 4, mean/SD part
Excerpt: (§4) MTT assay is a colorimetric assay used to measure proliferation, viability and cytotoxicity of cells. It consists in decomposition of a yellow tetrazolium salt MTT (4,5-dimethyl-2-thiazolyl)-2,5-diphenyltetrazolium bromide) to the water-insoluble purple dye formazan by mitochondrial enzyme succinate-tetrazolium reductase 1. MTT reduction occurs only in living cells. Data analysis consists in determining IC50 concentration of the protein (in ng/ml), at which the 50% reduction in the number of cells occurs in the population treated compared to control cells. Results were analyzed using GraphPad Prism 5.0 software. The test was performed according to the literature descriptions (Cells, J E, (1998). Cell Biology, a Laboratory Handbook, second edition, Academic Press, San Diego; Yang, Y., Koh, L W, Tsai, J H., (2004); Involvement of viral and chemical factors with oral cancer in Taiwan, Jpn J Clin Oncol, 34 (4), 176-183). Cell culture medium was diluted to a defined density (10^4-10^5 cells per 100 μl). Then 100 μl of appropriately diluted cell suspension was applied to a 96-well plate in triplicates. Thus prepared cells were incubated for 24 h at 37° C. in 5% or 10% CO2, depending on the medium used, and then to the cells (in 100 μl of medium) further 100 μl of the medium containing various concentrations of tested proteins were added. In the case of combination hTRAIL114-281 and p21WAF effector protein, 100 μl of the medium containing mixture of hTRAIL114-281 and p21WAF effector protein in molar ratio 1:1 was added. After incubation of the cells with tested proteins over the period of next 72 hours, which is equivalent to 3-4 times of cell division, the medium with the test protein was added with […] of MTT working solution [5 mg/ml], and incubation was continued for 3 h at 37° C. in 5% CO2. Then the medium with MTT solution was removed, and formazan crystals were dissolved by adding 100 μl of DMSO. After stirring, the absorbance was measured at 570 nm (reference filter 690 nm).
(§5) The results of in vitro cytotoxicity tests are summarized as IC50 values (ng/ml), which corresponds to the protein concentration at which the cytotoxic effect of fusion proteins is observed at the level of 50% with respect to control cells treated only with solvent. Each experiment represents the average value of at least two independent experiments performed in triplicates. As a criterion of lack of activity of protein preparations the IC50 limit of 2000 ng/ml was adopted.
Cells selected for this test included tumor cell lines that are naturally resistant to TRAIL protein (the criterion of natural resistance to TRAIL: IC50 for TRAIL protein >2000), as well as tumor cell lines sensitive to TRAIL protein and resistant to doxorubicin line MES-SA/DX5 as a cancer line resistant to conventional anticancer medicaments.

SK-MES-1 = assay: MTT cytotoxicity test, SK-MES-1 (human lung cancer); type: cell-based; conditions: for SK-MES-1 mean (IC50): Table 4, mean/SD part
Excerpt: as §4, §5

UM-UC-3 = assay: MTT cytotoxicity test, UM-UC-3 (human bladder cancer); type: cell-based; conditions: Table 4, mean/SD part
Excerpt: (§6) MTT assay is a colorimetric assay used to measure proliferation, viability and cytotoxicity of cells. It consists in decomposition of a yellow tetrazolium salt MTT (4,5-dimethyl-2-thiazolyl)-2,5-diphenyltetrazolium bromide) to the water-insoluble purple dye formazan by mitochondrial enzyme succinate-tetrazolium reductase 1. MTT reduction occurs only in living cells. Data analysis consists in determining IC50 concentration of the protein (in ng/ml), at which the 50% reduction in the number of cells occurs in the population treated compared to control cells. Results were analyzed using GraphPad Prism 5.0 software. The test was performed according to the literature descriptions (Cells, J E, (1998). Cell Biology, a Laboratory Handbook, second edition, Academic Press, San Diego; Yang, Y., Koh, L W, Tsai, J H., (2004); Involvement of viral and chemical factors with oral cancer in Taiwan, Jpn J Clin Oncol, 34 (4), 176-183). Cell culture medium was diluted to a defined density (10^4-10^5 cells per 100 μl). Then 100 μl of appropriately diluted cell suspension was applied to a 96-well plate in triplicates. […] After stirring, the absorbance was measured at 570 nm (reference filter 690 nm). […]

NCI-H460 = conditions: Table 4, mean/SD part
[2] = tested on: human colon cancer HCT116; assay: HCT116 colon cancer xenograft in Crl:CD1-Foxn1^nu 1 mice; type: in vivo; conditions: HCT116, Crl:CD1-Foxn1^nu 1 mice, 10 mg/kg i.v., 10 daily applications with a two-day break after the first 5, 27th day
Description: as §1, §2, §3

NIH: OVCAR-3 = assay: MTT cytotoxicity test, NIH: OVCAR-3 (human ovarian cancer); type: cell-based; conditions: Table 4, mean/SD part
Excerpt: as §6

MES-SA = assay: MTT cytotoxicity test, MES-SA (human uterine sarcoma); type: cell-based; conditions: continuous incubation over 72 h, test MTT
Excerpt: as §4, §5

MCF10A = assay: MTT cytotoxicity test, MCF10A (mammary epithelial cells); type: cell-based; conditions: continuous incubation over 72 h, test MTT
Excerpt: as §4, §5

A549 = assay: MTT cytotoxicity test, A549 (human lung cancer); type: cell-based
Excerpt: as §4, §5

[3] = tested on: TRAIL sensitive cell lines; assay: in vitro cytotoxicity tests, TRAIL sensitive cell lines; type: cell-based; conditions: continuous incubation over 72 h, test MTT; versus rhTRAIL 95-281 (cell line not given)
Excerpt: as §4, with “nm). […]” for “nm).”

HT-29 = assay: MTT cytotoxicity test, HT-29 (human colorectal cancer); type: cell-based; conditions: Table 4, mean/SD part; listed as Ex. 17^a
Excerpt: as §6

[4] = continuous incubation over 72 h, test MTT

Description for HCT-116: Data analysis consists in determining IC50 concentration of the protein (in ng/ml), at which the 50% reduction in the number of cells occurs in the population treated compared to control cells. Results were analyzed using GraphPad Prism 5.0 software. […] Cell culture medium was diluted to a defined density (10^4-10^5 cells per 100 μl). Then 100 μl of appropriately diluted cell suspension was applied to a 96-well plate in triplicates. Thus prepared cells were incubated for 24 h at 37° C. in 5% or 10% CO2, depending on the medium used, and then to the cells (in 100 μl of medium) further 100 μl of the medium containing various concentrations of tested proteins were added. […] After incubation of the cells with tested proteins over the period of next 72 hours, which is equivalent to 3-4 times of cell division, the medium with the test protein was added with 20 ml of MTT working solution [5 mg/ml], and incubation was continued for 3 h at 37° C. in 5% CO2. Then the medium with MTT solution was removed, and formazan crystals were dissolved by adding 100 μl of DMSO. After stirring, the absorbance was measured at 570 nm (reference filter 690 nm).

HCT116 mean (IC50) (HCT-116; Table 4, mean/SD part): 0.06 µg/mL and 0.06087 µg/mL | NCI-H460 mean (IC50) (NCI-H460): 4.246 µg/mL
B1: Ex. 2^a: fusion protein: 8-amino acid fragment of human fetoprotein (SEQ. No. 28) at N-terminus of TRAIL114-281, uPA cleavage site (protein)
chain: EMTPVNPGRVVRERGPQRVAAHITGTRGRSNTLSSPNSKNEKALGRKINSWESSRSGHSFLSNLHLRNGELVIHEKGFYYIYSQTYFRFQEEIKENTKNDKQMVQYIYKYTSYPDPILLMKSARNSCWSKDAEYGLYSIYQGGIFELKENDRIFVSVTNEHLIDMDHEASFFGAFLVG
modifications: synthesized, a fusion protein comprising: a fragment of TRAIL protein, a fragment of human fetoprotein and a cleavage site recognized by urokinase uPA.
tumor growth inhibition (TGI) relative to the control [1]: 81.3% | MES-SA/Dx5 mean (IC50) (MES-SA/Dx5): 0.01896 µg/mL | SK-MES-1 mean (IC50) (SK-MES-1): 0.01888 µg/mL | UM-UC-3 mean (IC50) (UM-UC-3): 0.03506 µg/mL | tumor growth inhibition (TGI) relative to the control [2]: 71.2% | OVCAR-3 mean (IC50) (NIH: OVCAR-3): 0.0261 µg/mL

HCT116 IC50 (HCT-116; [4]): 0.1235 µg/mL
B2: Ex. 14: fusion protein: 13-amino acid fragment of MEK-1 protein with antennapedia sequence at C-terminus of TRAIL121-281, MMP and uPA sites (protein)
chain: RVAAHITGTRGRSNTLSSPNSKNEKALGRKINSWESSRSGHSFLSNLHLRNGELVIHEKGFYYIYSQTYFRFQEEIKENTKNDKQMVQYIYKYTSYPDPILLMKSARNSCWSKDAEYGLYSIYQGGIFELKENDRIFVSVTNEHLIDMDHEASFFGAFLVGGSPLGLAGRVVRDRQIKIWFQNRRMKWKKGMPKKKPTPIQLN
modifications: synthesized, a fusion protein comprising: a fragment of TRAIL protein, a fragment of MEK-1 protein - an inhibitor of ERK activation, cleavage sites recognized by uPA and MMP, an antennapedia transporting domain and a glycine- cysteine linker.
MES-SA/Dx5 IC50 (MES-SA/Dx5; [4]): 0.01373 µg/mL | SK-MES-1 IC50 (SK-MES-1; [4]): 0.02848 µg/mL | MES-SA IC50 (MES-SA): 0.2312 µg/mL | MCF10A IC50 (MCF10A): >2 µg/mL | A549 IC50 (A549; [4]): 1.767 µg/mL | IC50 [3]: 0.049 µg/mL

B3: Ex. 17: fusion protein: 13-amino acid fragment of tubulin with 6 arginine residues at N-terminus of TRAIL121-281, uPA and MMP sites (protein)
chain: FRRKAFLHWYTGRRRRRRRRVVRPLGLAGRVAAHITGTRGRSNTLSSPNSKNEKALGRKINSWESSRSGHSFLSNLHLRNGELVIHEKGFYYIYSQTYFRFQEEIKENTKNDKQMVQYIYKYTSYPDPILLMKSARNSCWSKDAEYGLYSIYQGGIFELKENDRIFVSVTNEHLIDMDHEASFFGAFLVG
modifications: synthesized, a fusion protein comprising: a fragment of TRAIL protein, a fragment of tubulin peptide, cleavage sites recognized by urokinase uPA and metalloprotease MMP and an arginine transporting domain.
notes: fusion protein: 13-amino acid fragment of tubulin with 6 arginine residues at N-terminus of TRAIL121-281, uPA and MMP sites
MES-SA/Dx5 mean (IC50) (MES-SA/Dx5; listed as Ex. 17^a): 0.07596 µg/mL and 0.04426 µg/mL | SK-MES-1 mean (IC50) (SK-MES-1): 0.08119 µg/mL | HT 29 mean (IC50) (HT-29): 6.808 µg/mL and 7.818 µg/mL | A549 mean (IC50) (A549; Table 4, mean/SD part): 2.887 µg/mL

— patent US20140031283A1, “ANTICANCER FUSION PROTEIN” (ADAMED SP. Z O.O., priority 2011, published 2014)
